Experimental data from paper PMC4837377 (Scientific Reports, 2016).

Biological target: PA (residues 1-716) of influenza A virus RNA-dependent RNA-polymerase (influenza A virus …, UniProt P31343 1-716)
Assay: SEC-SAXS
Conditions: both partners purified

B1: PB1(1-686) of influenza A virus RNA-dependent RNA-polymerase (domain or fragment)
chain: MDVNPTLLFLKVPAQNAISTTFPYTGDPPYSHGTGTGYTMDTVNRTHQYSEKGKWTTNTETGAAQLNPIDGPLPEDNEPSGYAQTDCVLEAMAFLEESHPGIFENSCLETMEVVQQTRVDRLTQGRQTYDWTLNRNQPAATALANTIEVFRSNGLIANESGRLIDFLKDVIESMDKEEMEITTHFQRKRRVRDNMTKKMVTQRTIGKKKQRVNKRSYLIRALTLNTMTKDAERGKLKRRAIATPGMQIRGFVYFVETLARSICEKLEQSGLPVGGNEKKAKLANVVRKMMTNSQDTELSFTITGDNTKWNENQNPRMFLAMITYITKNQPEWFRNILSIAPIMFSNKMARLGKGYMFESKRMKLRTQIPAEMLASIDLKYFNESTRKKIEKIRPLLIDGTASLSPGMMMGMFNMLSTVLGVSILNLGQKKYTKTTYWWDGLQSSDDFALIVNAPNHEGIQAGVDRFYRTCKLVGINMSKKKSYINRTGTFEFTSFFYRYGFVANFSMELPSFGVSGINESADMSIGVTVIKNNMINNDLGPATAQMALQLFIKDYRYTYRCHRGDTQIQTRRSFELKKLWEQTRSKAGLLVSDGGPNLYNIRNLHIPEVCLKWELMDEDYQGRLCNPLNPFVSHKEIESVNNAVVMPAHGPAKSMEYDAVATTHSWIPKRNRSILNTSQRGILEDE
- stoichiometry N: 1
